# Experimental data as given in article PMC6937582, “Human leukocyte antigen (HLA) class II peptide flanking residues tune the immunogenicity of a human tumor-derived epitope” (The Journal of Biological Chemistry, 2019).
# Assays:
# [1] = target: HLA-DR1 (HLA-DRα*0101 and HLA-DRβ1*0101) (human); experiment: ELISA
# [2] = target: HLA-DR1 (HLA-DRα*0101 and HLA-DRβ1*0101) (human); experiment: ELISA; competitive peptide-binding assay: test peptide 10^-4-10^-10 M against 4.5 nM biotinylated CLIP 99-117 marker peptide for 0.1 μg refolded HLA-DR1-CLIP 105-117; 20 mM MES, 140 mM NaCl, 0.02% NaN3, pH 5, overnight at 37 °C; HLA-DR1 captured on anti-DR L243, bound marker detected with streptavidin-HRP; % competitive inhibition, four-parameter fit
# [3] = target: HLA-DR1 (HLA-DRα*0101 and HLA-DRβ1*0101); experiment: in vitro competition assay (HLA-DR1 peptide binding)
substance,measurement,setting,value
IAV hemagglutinin_(306–319) epitope (peptide),IC50,[1],13 nM
5T4_(11–30) peptide (from UniProt Q13641 11-30),IC50,[2],535 nM
5T4_(111–130) 20-mer peptide E3A,IC50,[3],149 nM
